The nature of this data set: yeast display, Sf9 membrane polyspecificity reagent, FACS + sequencing; frameworks hold sequencing errors. The method in brief:
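Sorting gates, low and high (top ~1%), were placed on anti-HA fluorescence to track expression and on streptavidin fluorescence to track reagent binding. A clone's polyreactivity label is taken from the gate it came out of. The reagent was 10% biotinylated, detergent-solubilized Sf9 membrane, applied for 1 hour at 4 °C to galactose-induced yeast display cells.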
For “QVQLVESGGGLVQAGGSLRLSCAASGITFTKYAMGWYRQAPGNERELVAAITTTGGSTYYADSVKGRFTISRDKAKNTVYLQMTSLKPEETAVYYCATELGWGGFYKYGHASQFDYWGQGTQVTVSS”, the “polyreactivity (PSR sort gate)” value is reported as “low polyreactivity”. Under “QVQLEESGGGLVQAGGSLRLSCPASGSIFSWNAMGWYRQSPGKERELVATITWNGGRTYYADSVKGRFTISRDNAKNTVYLQMKSLKPEDTAVYYCAARYYVYWTYPNRVLSYYYWGQRTQVTVSS” stands “high polyreactivity”. Take “QVQLVESGGGLVQAGGSLRLSCAASGIIFDYYAMGWYRQAPGKVREFVATITSGGSTTYADSVKGRFTISRDNAKNTVYIEMNSLKPEDTAVYYCAARTYWFPDIYPGLGRDYWGQGTQVTVSS”: the “polyreactivity (PSR sort gate)” value was “low polyreactivity”. Consider “QVQLVESGGGLVQAGGSLRLSCAASGSTFVNNAMGWYIQAPGKERELVAAIRSSDGRTYYADSVKGRFTISRDNAKNTVYLQMNSLKPEDTAVYYCATAVGTKYRTRIFEYYYWGQGTQVTVSS”, for which the “polyreactivity (PSR sort gate)” value is on record as “high polyreactivity”. In the case of “QVQLVESGGGLVQAGGSLRLSCAASGRIFIYKAMGWYRQAPGKERELVAAISSSGTSTYYADSVKGRFTISRDNAKNTVYLQKNSLKPEDTAVYYCNAVYNYRWYSQGYYWGQGTQVTVSS”, the “polyreactivity (PSR sort gate)” value was “high polyreactivity”. For the sequence “QVQLVESGGGLVQAGGSLRLSCAASGFTFQFYAMGWSRPAPGKERELVAAITWSGGSTYYADSVKGRFTISRDNAKNTVYLQMNSLKPEDTAVYYCAKDRRSYLSYIYDYWGQGTQVNVSS”, the “polyreactivity (PSR sort gate)” value is listed as “high polyreactivity”. Turning to “QVQLVESGGGLVQAGGSLRLSCAASGLTFYSYAMGWYRQAPGKERELVAAISKSGGSTYYADSVKGRFTISRDNAKNSVYLQMNSLKPEDTAVYYCNALTKTGTPPDYDYWGQGTQVTVSS”, the “polyreactivity (PSR sort gate)” value is “high polyreactivity”. In the case of “QVQLVESGGGLVQAGGSLRLSCAASGFIFKSYAMGWYRQAPGKERELVAAISGRGGSTYYADSVKGRFTISRDNAKNTVYLQMNSLKPEDTAVYYCNVVPSTYYQYDYWGQGTQVTVSS”, the “polyreactivity (PSR sort gate)” value was “high polyreactivity”. Under “QVQLVDSGGGLVQAGGSLRLSCAASGITFGYYAMGWYRQAPGKERELVAAISFTGASTYYADSVKGRFTISRDNAKNTVYLQMYSLKPEDTAVYYCAADPYVPYHDFLSGFDYWGQGTQVTVSS” stands “low polyreactivity”. As for “QVQLVESGGGLVQAGGSLRLSCAASGNIIDANAMGWYRQAPWKERELVAAITSSGGSTYYADSVKGRFTISRDNAKNTVYLQMNSLNPEDTAVYYCAKSHAIYYWWDESWGQGTQVTVSS”, the “polyreactivity (PSR sort gate)” value was “low polyreactivity”. For “QVQLVESGGGLVQAGGSLRLSCAASGRIFKRNAMGWYRQAPGKERELVAAISYSGGSTYYADSVKGRFTISRDNAKQTVYLQMNSLKPEDTAVYYCAVDRYPTGITKYDYWGQGTLVTVSS”, the “polyreactivity (PSR sort gate)” value was “high polyreactivity”. Under “QVQLVESGGGLVQAGGSLRLSCAASGFIFAGYAMGWYRQAPGKERELVAAISSGGGSTYYADSVKGRFTISRDNAKNTVYLQMNSLKPEDTAVYYCAARRLYPPGYYYWGQGTQVTVSS” stands “high polyreactivity”; under “QVQLVESGGGLVQAGGSLRLSCAASGRIFYSYAMGWYRQAPGKERELDAAITRGGSTSYADSVKGRFTISRDNAKNTVYLQMNSLKPEDTAVYYCATRQFYSYWKYYYWGQGTQVTVSS”, “high polyreactivity”. As to “QVQLVESGGGLVQAGGSLRLSCAASGFIFPAYAMGWYRPAPGKERELVAAISKSGGRTYYADSVKGRFTISRDNAKNTVYIQMKSLKPEYTAVYYCDARMYNYDTSSSFDYWGQGTQVTVSS”, the “polyreactivity (PSR sort gate)” value is given as “high polyreactivity”. As for “QVQLVESGGGLVQAGGSLRLSCAASGFIFTSYALGWYRQAPGKEREFFAAISRRGGSTYYADSVKGRFTISRDNAKNTVYLQMNSLKPEDTAVYYCAADPKQHSGYDYWGQGTQVTVSS”, the “polyreactivity (PSR sort gate)” value is “high polyreactivity”.

As for “QVQLVESGGGLVQAGGSLRLSCAASGRIFRKYTKGWYRQAPGKERELVAAITGTGGSTYYADSVKGRFTISRDNAKNTVYLQMNSLKPEDTAVYYCAADYSARYGFWGLGTQVTVSS”, the “polyreactivity (PSR sort gate)” value was “high polyreactivity”. “QVQLVESGGGLVQAGGSLRLSCAASGIIFRTYAMGWYRQAPGKERELVAAINSDGSTYYADSVKGRFTISRDNAKNTVYLQMNSLKPEDTAVYYCAAVVWRIHAYYWAVDGWYYYWGQGTQVTVSS”: the “polyreactivity (PSR sort gate)” value is “high polyreactivity”. As for “QVQLVESGGGLVQAGGSLRLSCAASGFTLFYNAMGWYRQAPGKERELVAAITARGGGTYYADSVKGRFTISRDNAKNPVYLQMNSLKPEDTAVYYCAADSFIPPYDHWGQGTQVTVSS”, the “polyreactivity (PSR sort gate)” value is on record as “low polyreactivity”. On to “QVQLVESGGCLVQAGGSLRLSCAASGSTLVIYAMGWYRQAPGKESELVAAINFSDGSTSYADSVKGRFTISRDNAKNTVYLQMNSLKPEDTAVYYCAADWWYGYSNYDYWGQGTQVTVSS”, for which the “polyreactivity (PSR sort gate)” value is “low polyreactivity”. As for “QVQIVESGGGLVQAGGSLRLSCAASGRIFNIYAMGWYRQAPGKERELVADIRWNGGSTYYADSVKGRFTISRDNAKNTVYLQMNSLKPEDTAVYYCAAARRRRFYDYYNAWYDVDYWGQGTQVTVSS”, the “polyreactivity (PSR sort gate)” value was “low polyreactivity”. Regarding “HVQLVESGGGLVQAGGSLRLSCAASGINFSWYPMGWYRQAPGKERELVAAISSSGGTTFYADSVKGRFTISRDKAKNTVYLQMNSLKPEDTAVYYCAVVGPPYYTWRVWRPAYDYWGQVTQVTVSS”, the “polyreactivity (PSR sort gate)” value is “high polyreactivity”.

Take “QVQLVESGGGLVQAGGSLRLSCAASGSTFLYYAMGWYRQAPGKERELVAVISWSGVSTYYADSVKGRFTISRDNAKNTVYLQMNSLKPEVTAVYYCNTGNHYIRTYGYWGQGTQVTVSS”: the “polyreactivity (PSR sort gate)” value is “low polyreactivity”. For “QVQLVESGGGLVQAGGSLRLSCAASGSIFKYYAKGWYRQAPGKERELVAAITIGGNTNYADSVKGRFTISRDNAKNTVYLQMNSLKPEDTAVYYCATGGYYSAIVYGGYDYWGHGTQVTVSS”, the “polyreactivity (PSR sort gate)” value is “low polyreactivity”. On to “QVQLVESGGGLVQAGGSLRLSCAASGIIFNSNAMGWYRQAPGKERELVAGISRGSSTSYADSVKGRFTISRDNAKNPVYLQMNSLKPADNAVYFCNAEVYSPQQFTPPDRYYYWGQGTQVTVSS”, for which the “polyreactivity (PSR sort gate)” value is listed as “low polyreactivity”.

For “QVQLQESGGGLVQAGGSLRLSCAQSGTICGWDRMGRYRQAPGKERELVATIDNRGSTNYADSVKGRFTISRDNANNTVYPQKISLKPDDTAVDYCAVVGPTPQYHLYWGQGTQVTVCS”, the “polyreactivity (PSR sort gate)” value is listed as “high polyreactivity”. As to “QVQLVESGGGLVQAGGSLRLSCAASGSTSYLYPMGWDRQAPGKERELVAAISWNGGSTYYADSVKGRFTISLDNAKNTVYLQMNSLKPEDTAVYYCAASVHATSFSGGRHWFKLYYWGQGTQVTVSS”, the “polyreactivity (PSR sort gate)” value is listed as “high polyreactivity”.

As for “QFQLVESGGGLVQAGGILRLSCAASGITFRIYAMGWYRQAPGKERELVAGISSSGSTNYADSVKGRFTISRESAKNTVYLQMNSLKPEDTAVYYCAADAFYKFDYWGQGTQVTESS”, the “polyreactivity (PSR sort gate)” value is listed as “high polyreactivity”. Regarding “QVQLVESGGGLVQSGGSLRLSCAASGSTFSTYAMGWYRQAPGKERQLVAGITGSGGRTYYADSVKGRFTISRDNAKHTVYLQMNSMKPEDTGVYYCAASTRGYKWVGRDYDYWGQGTQVTVSS”, the “polyreactivity (PSR sort gate)” value is “high polyreactivity”. For the sequence “QVQLVESGGGLVQAGGSLRISCAASGRNYSYYAMGWYREAPGKERELVAAITYSGGSTYYADSVKGRFTITRDNAKNTVYLQMNSLKPEDTAVYYCAAGLSIYYWGQGTQVTVSS”, the “polyreactivity (PSR sort gate)” value is listed as “low polyreactivity”. Under “QVQLVESGGGLVQAGGSLRLSCAASGRIFRYYAMGWYRQAPGKERELVAAINTSTGSTYYADSVKGRFTISRDNAKNTVYLQMNSLKPEDTAVYYCATGWHYYRSLRGGLAWPGGYWGQGTQVTVSS” stands “high polyreactivity”; under “QVQLVESGGGLVQAGGSIRLSCAASGRTAKRYAMGWYRQAPGKERELVAAISRGGGSTYYADSVKGRFTISRDNAKNTVYLQMNSLKPEDTAVYYCAADLNSYTRYDYWGQGTQVTVSS”, “high polyreactivity”; under “QVQHVESGGGIVQAGGSLRLSCAASGSTFRWYAMGWYRQARGQERELVAAFTAGGRTYYADSVKGRFTISRDNAKNTVYLQMNSLKPEDTAVYYCNALGKVWRGGKFGYWGQGTQVTVSS”, “high polyreactivity”.

Consider “QVQLVESGGGLVQAGGSLRLSCAASGIILDHYAMGWYRQAPGKERELVAAISSGTRTNYADSVKGRFTISRDNAKNTVYLQMNSLKPEDTAVYYCAATIYRRYRSKSSITSYWGQGSQVTVSS”, for which the “polyreactivity (PSR sort gate)” value was “high polyreactivity”. As to “QVQLVESGGGLVQAGGSLRLTCAASGRIFALYAMGWYRQAPGKERELVAAITSGSTYYADSVKGRFTISRDNAKNTVYLQMNSLKPEDTAVYYCAADANYYPTEYYPFDYWGQGTQVTVSS”, the “polyreactivity (PSR sort gate)” value is reported as “low polyreactivity”.

Take “QVQLVESGGGLVQAGGSLRLSCAASGSTFGYYAMGWYRQATGKERELVAAISSGGSTSYADSVKGRFTISRDNAKNTVYLQMNSLKPEDTAVYYCNTSYRKKKRYYYWGQGTQVTVSS”: the “polyreactivity (PSR sort gate)” value is reported as “high polyreactivity”. Next, “QVQLGESGGGLVQAGGSLRLSCAASGSTFARYAMGWYRQAPGKERELVAVIRSGGSRNYADSVKGRFTISRDNAKNTVYLQMNSLKPEDTAGAADQWTIHRWATYGYWGQGTQVTVSS”: “low polyreactivity”; “QVQLVESGGGLVQAGGSLRLSCAASGRTFYYAMGWYRQAPGTERELVATITSGGSTNYADSVKGRFTISRDNAKNTVYLQMNSLKPEDTAVYYCNRDIPPGNYYKALYYYWGQGTQVTVSS”: “low polyreactivity”; “QVQLVESGGGIVQAGGSLRISCAASGYNFRYNAMGWYRQAPGKERELVATITRGGSTNYPDSVKGRFTISRDNAKNTVYLQMNSMKPEDTAVYYCKKEAAPLGFVPSYYGRDYWGQGTQVTVSS”: “low polyreactivity”. For “QVKLVESGGGLVQAGGSLRLSCAASGSIFTYTIGWYRQAPGKESELVAVISRSGGRTYYADSVKGRFTISRDNAKNTVYLQMNSLKPEDTAVYYCAAEYYVDYYRTSRSFTRWRYEYWGQGTQVTVSS”, the “polyreactivity (PSR sort gate)” value was “high polyreactivity”.

For the sequence “QVQLVESGGGLVQAGGSLRLSCAASGRIFVYYTMGWYRQAPGKERELVAAITGSGGSTYYADSVKGRFTISRDNAKNTVYLQMNSLKPEDTAVYYCAVYDSYRKFKYWGQGTQVTVSS”, the “polyreactivity (PSR sort gate)” value is “high polyreactivity”.

For the origin of these results see the nanobody polyreactivity screen of Harvey et al. (2022).
